Experimental data published in patent US12661385B2, “Modulation of mTORCI activity and autophagy via CIB2-RHEB interaction” (University of Maryland, Baltimore, priority 2018, dated 2026).

Experiments:
mTORC1 [1] = test: Phosphoprotein immunoblots of HEK293 cells overexpressing increasing amounts of CIB2, mTORC1 targets; type: cell-based
Procedure: (§1) FIG. 3. […] Note the stronger interaction between CIB2 and Rheb S20N variant as compared to Q64L variant (GDP vs GTP mimetic, respectively). c, CIB2 preferentially interacts with GDP-loaded Rheb is further confirmed by co-IP experiments of HA-GST-Rheb immobilized on […] and loaded with either GDP or GTPγS, followed by incubation with tdTomato-CIB2 lysate. d, Proposed model of CIB2 function in retinal sensory cells. […] Loss of CIB2 results in reduced autophagy and exacerbated mTORC1 signaling, thus leading to RPE pathology and secondary PR dysfunction. e, f Immunoblots from RPE/choroid lysates from dry AMD or control age-matched donors indicate reduced CIB2 expression, overactive mTORC1 and reduced autophagy, quantified in panel f. Unpaired two-tailed 1 test was used to determine statistical significance. p value of <0.05 (*), <0.01 (**), and <0.001 (***). Please note that one control sample (ψ) is outliner and is highly variant from the rest, Re-quantification, omitting the highly variant control sample, is shown in FIG. 15. g.
mTORC1 integrates various metabolic and amino acid signals through its nutrient-sensing arm and growth signals, which converge on the small GTPase Rheb, via the TSC complex (Wolfson et al., Cell Metabolism 26, 301-309 (2017)). We first tested if CIB2 is a specific negative regulator of mTORC1 and/or mTORC2. We used HEK293 cells, because the mTORC1 signaling pathway is well-established in this cell line, and to expand CIB2 functions beyond the RPE.
80% confluent HEK293 cells in 10-cm dishes were transfected for co-IP experiments with 10 μg of indicated plasmid/s using the polyethylenimine (PEI) method (3:1::PEI:DNA). 2 plates per condition were used. 36 hr later the plates were chilled on ice, washed once with ice-cold PBS, and cells collected in ice-cold PBS and centrifuged for 2 min at 1500 RPM at 4° C. Cell pellet was then lysed in IP buffer (0.3% CHAPS, 40 mM HEPES, 2.5 mM MgCl2, 1× Protease inhibitors, 1 mM Na orthovanadate, 10 mM Na glycerophosphate, 10 mM NaF) on ice for 20 min, followed by centrifuging at full speed for 20 min at 4° C. […]

Raptor [2] = target: T1, Raptor (Homo sapiens, UniProt Q8N122); test: Co-immunoprecipitation of Raptor and CIB2; type: binding; design: HA (N); mCherry (N); host or cells: HEK293
Description: (§2) FIG. 14. […] Arrowheads indicate filopodia tip accumulation of hCIB2-eGFP, * indicates no accumulation of indicted constructs in the red channel. c. Representative confocal images (top panel) showing CIB2 (green) interaction with Rheb (red) and Raptor (red) using NanoTRAP assay. […] Arrowheads indicate filopodia tip accumulation of indicated constructs, * indicates no accumulation of indicted construct in the red or far-red channel. Scale bar: 10 μm. d. Quantification for nanoTRAP assay for images shown above. *** p<0.001 by one-way ANOVA. e, Co-IP experiments show interaction between Raptor and CIB2.
(§3) To reveal the molecular mechanism of CIB2-mediated mTORC1 modulation, we focused on the TSC-Rheb-mTORC1 axis. We performed an interaction screen of specific proteins including TSC1, TSC2, mTORC1-specific subunit Raptor, mTOR kinase, and Rheb. We used a recently-published quantitative interaction assay known as nanoscale pulldown 2.0 (NanoSPD), in which eGFP-nanobody tag fused to the myosin-HMM domain (nanoTRAP) preferentially migrates to the filopodia (Bird et al., Molecular Biology of the Cell 28, 463-475 (2017)). CIB2-eGFP (bait) migrated efficiently to filopodia in COS-7 cells only in the presence of the nanoTRAP. […] Many downstream and upstream targets of mTORC1 regulate its activity via binding to the mTORC1-specific subunit Raptor. […]

Raptor [3] = target: T1, Raptor; test: NanoSPD (nanoTRAP) interaction assay in COS-7 cells, Raptor; type: binding; design: HA (N); mCherry (N); settings: filopodia tip co-accumulation
Description: as §2, §3

GDP-bound Rheb = target: T2, GDP-bound Rheb (Homo sapiens, UniProt Q15382); test: Co-IP with bead-immobilized HA-GST-Rheb loaded with GDP or GTPγS; type: binding; settings: glutathione bead-immobilized HA-GST-Rheb (WT) loaded with GDP or non-cleavable GTPγS, tdTomato-CIB2 lysate added
T2 construct: host or cells: HEK293
Procedure: as §1
We tested the essentiality of nucleotide binding state of Rheb using co-IP assays. […] Next, we used the Q64L and S20L Rheb variants, which mimic the GTP- and GDP-bound state, respectively.
For GTPγS of GDP loading experiments, cleared lysates of HEK293 cells over-expressing HA-GST-Rheb were prepared as described in buffer lacking MgCl2. […]

mTORC1 [4] = test: Phosphoprotein immunoblots of LAM-621 cells overexpressing CIB2, mTORC1 targets; type: cell-based, human; settings: LAM-621 cells overexpressing increasing amounts of CIB2

T1 sequence (Q8N122 whole entry): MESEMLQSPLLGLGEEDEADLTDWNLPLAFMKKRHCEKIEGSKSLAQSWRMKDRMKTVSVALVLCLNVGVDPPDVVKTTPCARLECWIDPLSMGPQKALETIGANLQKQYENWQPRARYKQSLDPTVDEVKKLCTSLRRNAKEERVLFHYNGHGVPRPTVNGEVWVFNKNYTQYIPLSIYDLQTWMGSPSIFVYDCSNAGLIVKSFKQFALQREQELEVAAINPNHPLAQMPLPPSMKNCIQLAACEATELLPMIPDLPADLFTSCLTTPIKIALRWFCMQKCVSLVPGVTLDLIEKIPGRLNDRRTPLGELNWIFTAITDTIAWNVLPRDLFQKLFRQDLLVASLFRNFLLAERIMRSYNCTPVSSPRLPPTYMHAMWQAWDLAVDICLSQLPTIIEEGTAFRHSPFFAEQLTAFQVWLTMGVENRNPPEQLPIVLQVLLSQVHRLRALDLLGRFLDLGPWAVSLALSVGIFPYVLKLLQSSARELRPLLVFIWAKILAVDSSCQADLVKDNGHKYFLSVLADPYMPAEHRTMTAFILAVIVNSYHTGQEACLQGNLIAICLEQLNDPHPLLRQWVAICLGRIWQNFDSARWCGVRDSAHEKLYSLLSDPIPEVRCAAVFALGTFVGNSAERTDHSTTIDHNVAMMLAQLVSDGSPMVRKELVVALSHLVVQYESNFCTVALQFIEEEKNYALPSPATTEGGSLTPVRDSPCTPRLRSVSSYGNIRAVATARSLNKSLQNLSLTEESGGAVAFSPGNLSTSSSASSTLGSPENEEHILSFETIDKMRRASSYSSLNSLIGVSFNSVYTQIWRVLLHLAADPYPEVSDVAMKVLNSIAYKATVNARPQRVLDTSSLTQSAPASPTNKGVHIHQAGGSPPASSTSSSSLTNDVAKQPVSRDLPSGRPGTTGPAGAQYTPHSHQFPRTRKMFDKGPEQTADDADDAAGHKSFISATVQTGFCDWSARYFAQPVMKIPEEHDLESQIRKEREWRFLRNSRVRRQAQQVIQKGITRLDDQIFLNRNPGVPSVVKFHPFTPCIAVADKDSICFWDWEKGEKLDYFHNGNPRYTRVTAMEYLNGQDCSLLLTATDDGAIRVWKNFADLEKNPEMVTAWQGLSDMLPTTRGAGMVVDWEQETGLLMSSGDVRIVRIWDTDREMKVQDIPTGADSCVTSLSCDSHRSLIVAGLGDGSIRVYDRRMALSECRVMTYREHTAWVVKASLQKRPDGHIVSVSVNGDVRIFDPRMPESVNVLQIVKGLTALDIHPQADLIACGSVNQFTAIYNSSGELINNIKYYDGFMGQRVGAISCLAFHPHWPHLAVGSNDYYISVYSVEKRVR
T2 sequence (Q15382 whole entry): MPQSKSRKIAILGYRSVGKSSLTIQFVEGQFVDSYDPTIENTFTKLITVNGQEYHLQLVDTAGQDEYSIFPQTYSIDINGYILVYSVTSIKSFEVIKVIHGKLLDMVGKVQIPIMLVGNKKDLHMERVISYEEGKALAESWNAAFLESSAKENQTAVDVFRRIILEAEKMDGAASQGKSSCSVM

Interaction with Raptor (co-IP) (Raptor [2]): confirmed the interaction | Interaction with Raptor (NanoSPD) (Raptor [3]): interacts with CIB2
B1: CIB2: calcium and integrin binding protein 2, over-expressed in cells from plasmid constructs; SEQ ID NO:1 (human), SEQ ID NO:2 (mouse) (protein)
chain: MGNKQTIFTEEQLDNYQDCTFFNKKDILKLHARFYELAPNLVPMDYRKSPIVHVPMSLIIQMPELRENPFKERIVEAFSEDGEGNLTFNDFVDMFSVLCESAPRELKANYAFKIYDFNTDNFICKEDLEMTLARLTKSELEEDEVVLVCDKVIEEADLDGDGKLGFADFEDMIAKAPDFLSTFHIRI
modifications: left off: large carriers
Phosphorylation of 4E-BP1 (mTORC1 [1]): decreasing phosphorylation | Phosphorylation of S6K1 (mTORC1 [1]): decreasing phosphorylation | Phosphorylation of ULK1 (mTORC1 [1]): decreasing phosphorylation | Binding to GDP-bound vs GTP-bound Rheb (GDP-bound Rheb): binds more strongly to GDP-bound Rheb than to GTP-bound Rheb | Phosphorylated 4E-BP-1 (mTORC1 [4]): decreasing amounts | Phosphorylated ULK1 (mTORC1 [4]): decreasing amounts
